Test results: PMC4749091 (The Journal of Experimental Medicine, 2016)

Molecular target: T1, human CD112-Fc fusion protein (human, UniProt Q92692 32-360)
T1 sequence (looked up): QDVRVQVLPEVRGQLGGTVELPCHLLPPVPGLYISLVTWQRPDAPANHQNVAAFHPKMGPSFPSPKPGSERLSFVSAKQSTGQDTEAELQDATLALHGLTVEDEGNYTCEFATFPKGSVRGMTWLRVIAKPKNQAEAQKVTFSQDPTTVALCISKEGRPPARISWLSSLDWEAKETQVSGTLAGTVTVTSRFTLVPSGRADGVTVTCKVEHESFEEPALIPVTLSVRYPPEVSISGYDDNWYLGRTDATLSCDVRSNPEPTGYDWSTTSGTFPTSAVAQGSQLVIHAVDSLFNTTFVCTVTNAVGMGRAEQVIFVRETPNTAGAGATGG
Test: competition by flow cytometry on protein-coated beads

binding result: binds
B1: human CD226-Fc fusion protein (Fc fusion, UniProt Q15762 19-254, looked up)
chain: EEVLWHTSVPFAENMSLECVYPSMGILTQVEWFKIGTQQDSIAIFSPTHGMVIRKPYAERVYFLNSTMASNNMTLFFRNASEDDVGYYSCSLYTYPQGTWQKVIQVVQSDSFEAAVPSNSHIVSEPGKNVTLTCQPQMTWPVQAVRWEKIQPRQIDLLTYCNLVHGRNFTSKFPRQIVSNCSHGRWSVIVIPDVTVSDSGLYRCYLQASAGENETFVMRLTVAEGKTDNQYTLFVA
